From PMC12069319, “Transcriptional co-regulator OCA-B/Pou2af1 restricts Th2 differentiation”

Target: Oct1 DNA binding domain (Oct1-DBD) (human (from pBabe-hOct1), UniProt P14859 280-438)
Assay: EMSA; EMSA: 0.6X buffer D (1X: 20 mM HEPES, 100 mM KCl, 1 mM DTT), 50 ng/ul poly-dI/dC, 1 ug/ul BSA, on ice 15 min, 6% native PAGE in 0.5X TBE; probe 50 nM (1 nM for)
Details: protein: recombinant; tags: His (pET28a); blunt

Oct1 DNA binding domain (Oct1-DBD), sequence (P14859 280-438): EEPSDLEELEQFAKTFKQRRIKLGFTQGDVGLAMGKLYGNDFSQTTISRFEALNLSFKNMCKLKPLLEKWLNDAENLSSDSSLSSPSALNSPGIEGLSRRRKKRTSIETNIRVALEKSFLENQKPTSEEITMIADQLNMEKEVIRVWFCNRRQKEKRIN

B1: RHS5_12-Cy5 (dsDNA)
DNA 1: TCGAGAAGCGCTGATTAGCATCTGTCATTA
DNA 2: TAATGACAGATGCTAATCAGCGCTTCTCGA
- binding result: binds

B2: RHS6-Cy5 (dsDNA)
DNA 1: CACCATGCAAAGGATGTGCGCGGACTCCCTTCCATTTGCTGGCCTCTTATCTGATA
DNA 2: TATCAGATAAGAGGCCAGCAAATGGAAGGGAGTCCGCGCACATCCTTTGCATGGTG
- binding result: binds
